The target of assay [1] is T1, protein containing the extracellular domain of mouse TREM2 fused to Fc (mouse, UniProt Q99NH8 19-171).
T1 construct: extracellular domain; also called Mouse TREM2-Fc; not shown: Fc
T1 sequence (looked up): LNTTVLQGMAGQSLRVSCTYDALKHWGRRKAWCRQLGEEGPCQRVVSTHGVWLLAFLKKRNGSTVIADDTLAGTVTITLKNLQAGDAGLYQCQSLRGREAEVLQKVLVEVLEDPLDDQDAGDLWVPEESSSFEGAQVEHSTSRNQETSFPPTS
Put plainly: SPR (Biacore). An excerpt: (§1) A Surface Plasmon Resonance (Biacore) assay was used to assess the binding of humanized CGX101 (hCGX101), an IgG4 antibody, to the extracellular domain of human TREM2 and to a protein containing the extracellular domain of mouse TREM2 fused to Fc.

For assay [2], the target named is T2, extracellular domain (ECD) of human TREM2 (human, UniProt Q9NZC2 19-174).
T2 construct: also called Human TREM2-ECD; human TREM2-extracellular domain (ECD)
T2 sequence: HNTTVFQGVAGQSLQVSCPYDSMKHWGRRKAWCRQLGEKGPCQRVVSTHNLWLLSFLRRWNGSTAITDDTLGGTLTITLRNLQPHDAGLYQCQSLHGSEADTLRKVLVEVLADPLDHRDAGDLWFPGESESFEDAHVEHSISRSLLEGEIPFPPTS
Put plainly: SPR (Biacore).
Source text: as §1

Several values for one entry are separate records, joined by “and”; a condition that tells them apart may be missing. Equal entries are not always repeated.

B1: humanized CGX101 (hCGX101), an IgG4 antibody (antibody, V domains shown)
VH: EVQLVQSGAEVKKPGESLKISCKGSGYTFTDYNIHWVRQMPGKGLEWMGYIYPKNGGTGYTQKFKSQVTISVDNSISTAYLQWSSLKASDTAMYYCARRTARASWFAFWGQGTLVTVSS
VL: DIVMTQSPATLSVSPGERATLSCKSSQSLLYSSNQKNYLAWYQQKPGQAPRVLIYWASTRESGIPARFSGSGSGTEFTLTISSLQSEDFAVYYCQQYYNYPFTFGQGTKLEIK
notes: also called hIgG4; huIgG4
In assay [1], B1 showed a Kd of 18.6 nM, a koff of 0.00106 s⁻¹ and a kon of 57000 M⁻¹ s⁻¹. Besides, in assay [2], the Kd is 5.74 nM and 5.73 nM; the koff is 0.000715 s⁻¹; the kon is 125000 M⁻¹ s⁻¹.

Values taken from patent publication US20260092111A1 (MOR RESEARCH APPLICATIONS, published 2026).
